Source: patent US20260234242A1 (HAINAN SIMCERE ZAIMING PHARMACEUTICAL, published 2026)
Where two headings read alike, the source gives them in different places. Blank lines part the entries; values can stand above or below the binder they belong to.

Tests used:
[1] = target: T1, his-tagged human CDH6 extracellular region protein (hCDH6 ECD-his) (human, UniProt P55285 19-615); assay: ELISA, coated antigen
T1 construct: also called Human CDH6-his; hCDH6-his; not shown: his tag
T1 sequence: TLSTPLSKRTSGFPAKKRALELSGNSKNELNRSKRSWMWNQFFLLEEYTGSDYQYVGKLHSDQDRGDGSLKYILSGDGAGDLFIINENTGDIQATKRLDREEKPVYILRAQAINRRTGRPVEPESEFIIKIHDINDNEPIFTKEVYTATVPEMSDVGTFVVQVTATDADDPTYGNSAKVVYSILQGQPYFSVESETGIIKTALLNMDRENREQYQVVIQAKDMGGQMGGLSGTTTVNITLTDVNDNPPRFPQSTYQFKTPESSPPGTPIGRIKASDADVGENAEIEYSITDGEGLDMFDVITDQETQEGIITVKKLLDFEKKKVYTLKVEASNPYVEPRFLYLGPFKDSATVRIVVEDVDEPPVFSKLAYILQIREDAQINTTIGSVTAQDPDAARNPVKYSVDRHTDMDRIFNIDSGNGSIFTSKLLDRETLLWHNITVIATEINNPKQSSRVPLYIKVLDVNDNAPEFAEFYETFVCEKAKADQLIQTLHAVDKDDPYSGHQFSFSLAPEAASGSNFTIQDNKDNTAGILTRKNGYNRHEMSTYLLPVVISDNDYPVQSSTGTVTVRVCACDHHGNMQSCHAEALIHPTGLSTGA
Description: Human CDH6 protein (hCDH6 ECD-his, conventionally synthesized), monkey CDH6 protein (cynoCDH6 ECD-his, conventionally synthesized; the cynoCDH6 ECD sequence was derived from Uniprot #A0A2K5TW62 (19-615)), and murine CDH6 protein (mCDH6 ECD-his, conventionally synthesized; the mCDH6 ECD sequence was derived from Uniprot #P97326 (19-615)) were diluted with PBS to a final concentration of 1 μg/mL, and added to a 96-well ELISA plate at 100 μL/well. The plate was incubated at 4° C. overnight. The next day, the plate was washed 3 times with a plate washing solution (PBS+0.01% (v/v) Tween 20), and a blocking buffer (PBS+0.01% (v/v) Tween 20+2% (w/w) BSA) was added for blocking at room temperature for 2 h. The blocking buffer was discarded, and the plate was washed 3 times. The chimeric antibodies were diluted with 1% BSA+PBS (purchased from Cytiva, Cat. No. SH30264.01) and added to the 96-well plate at 50 μL/well. After incubation at 37° C. for 2 h, the plate was washed 3 times with a plate washing solution. […] The plate was incubated at 37° C. for 1 h and then washed 5 times with a plate washing solution. A TMB substrate (purchased from Seracare, Cat. No. 5120-0077) was added at 50 μL/well and incubated at room temperature for 10 min, then a stop solution (1.0 N HCl) was added at 50 μL/well. OD450 nm values were read using a microplate reader (Biotek). Analysis was performed by the GraphPad Prism software, data were fitted, and EC50 values were calculated. The chimeric antibodies tested all had strong binding to the human CDH6 protein, the monkey CDH6 protein, and the murine CDH6 protein.
According to the above sequences, heavy chain (HC) and light chain (LC) plasmids were constructed (the nucleic acid sequences encoding the VH and VL of the antibodies were recombined into an expression vector carrying a signal peptide (SEQ ID NO: 132, […]) and a heavy chain constant region/light chain constant region sequence to obtain recombinant plasmids expressing VH—CH1-Fc/VL-CL).

[2] = target: T1, his-tagged human CDH6 extracellular …; assay: ELISA, coated antigen; remark: listed apart in the source
[3] = target: T1, his-tagged human CDH6 extracellular …; assay: SPR Biacore, antibody captured on Protein A
Description: The affinity of the antibody for the antigen was determined by a multi-cycle kinetic method using a BIAcore 8K instrument. In each cycle, the antibody to be tested was captured using a Protein A chip (purchased from GE, Cat. No. 29-1275-56), and then the antigen human CDH6 protein (hCDH6-his, conventionally synthesized) was injected. The association and dissociation processes of the antibody with the antigen protein were recorded, and finally, the chip was regenerated using Glycine pH 1.5, wherein the mobile phase was HBS-EP+ (10 mM HEPES, 150 mM NaCl, 3 mM EDTA, 0.05% surfactant P20, and 1 mM Ca), the flow rate was 30 μL/min, the association time was 240 s, the dissociation time was 300 s, the regeneration time was 30 s, the detection temperature was 25° C., and the antigen concentration was 31.25-1000 nM. The data were analyzed using Biacore 8K analysis software (version No. 2.0) based on the 1:1 binding model to fit the antibody-antigen binding kinetic parameters, including the association rate constant ka, the dissociation rate constant kd, and the equilibrium dissociation constant KD. The affinity values of the control antibody DS-H01L02 were undetectable. Antibodies not shown in the table had undetectable affinity values.
Four hCDH6-1 humanized antibodies with fewer back mutations were selected, and the affinity for human CDH6 protein was further confirmed using Biacore.

EC50 [1]: 0.026 nM | Max OD450 [1]: 1.97 OD450
B1: hCDH6-6-H2L2 (antibody, V domains shown)
VH: EVQLVQSGAEVKKPGASVKVSCKASGYTFTDYYMAWVRQAPGQGLEWMGYIFPNSGGTDYSQKFKGRVTLTVDKSTSTVYMELSSLRSEDTAVYYCARELGADYGDYYAMDHWGQGTTVTVSS
VL: DIQMTQSPSSLSASVGDRVTITCRASENIDSYLAWYQQKPGKSPKLLVYSATLLADGVPSRFSGSGSGTDYTLTISSLQPEDFATYYCQHYYRTPPTFGQGTKLEIK
notes: Humanized

EC50 [1]: 0.028 nM | Max OD450 [1]: 2.02 OD450
B2: CHI-CDH6-6 (antibody, human IgG1, kappa, V domains shown)
VH: EVQLQQSGPELVKPGDSVKMSCKASGYTFTDYYMAWVRQSHRKSLEWIGYIFPNSGGTDYSQKFKGKATLTVDKSSSTVYMELHSLTSEDSAVYYCARELGADYGDYYAMDHWGQGTSVSVSS
VL: DIQMTQSPASLSASVGETVTITCRASENIDSYLAWYQQKQGKSPQLLVYSATLLADGVPSRFSGSGSGTQYSLKINSLKSEDVARYYCQHYYRTPPTFGSGTKLEIKR
notes: also called CHI-hCDH6-6; chimeric antibody of murine CDH6-6

EC50 [2]: 0.032 nM | Max OD450 [2]: 2.59 OD450 | Kd [3]: 11.4 nM | koff [3]: 0.00504 s⁻¹ | kon [3]: 442000 M⁻¹ s⁻¹
B3: CHI-CDH6-1 (antibody, human IgG1, kappa, V domains shown)
VH: QVQLQQPGAELVRPGSSVKLSCKASGYTFTNYWMHWVKQRPIEGLEWIGDIDPSHSETHYTQKFKDKATLTVDKSSSTAYMQLSSLTSEDSAVYYCARGDLGRFDYWGQGTTLTVSS
VL: DIVLTQSPASLAVSLGQRATISCRASESVSIHGTHLMHWYQQKSGQPPKLLIYAASNLESGVPARFSGSGSETDFTFNIHPVEEEDAATYFCQQSFEDPWTFGGGTKLEIKR
notes: also called CHI-hCDH6-1; CH1-CDH6-1

EC50 [2]: 0.029 nM | Max OD450 [2]: 2.61 OD450 | Kd [3]: 18 nM | koff [3]: 0.00821 s⁻¹ | kon [3]: 457000 M⁻¹ s⁻¹
B4: hCDH6-1-H2L3 (antibody, V domains shown)
VH: EVQLVQSGAEVKKPGSSVKVSCKASGYTFTNYWMHWVRQAPGQGLEWMGDIDPSHSETHYTQKFKDRVTITVDKSTSTAYMELSSLRSEDTAVYYCARGDLGRFDYWGQGTTVTVSS
VL: DIQMTQSPSSLSASVGDRVTITCRASESVSIHGTHLMHWYQQKPGKPPKLLIYAASNLESGVPSRFSGSGSETDFTFTISSLQPEDIATYYCQQSFEDPWTFGGGTKVEIK
notes: Humanized
